Test results from patent US20250136677A1 (ZOETIS SERVICES, published 2025).

Columns and labels:
[1] = molecular target: T1, mutant feline IL-31 15H05 protein (Feline_IL31_15H05_mutant) (feline); experiment: indirect ELISA, IL-31 protein coated
T1 construct: also called feline 15H05 mutant; 15H05 IL-31 mutant
T1 chain: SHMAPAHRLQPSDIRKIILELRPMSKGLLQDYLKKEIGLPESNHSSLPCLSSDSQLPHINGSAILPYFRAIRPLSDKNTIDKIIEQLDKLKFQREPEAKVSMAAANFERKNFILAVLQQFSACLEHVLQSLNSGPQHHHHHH

[2] = molecular target: T2, wildtype feline IL-31 protein (Feline_IL31_wildtype) (feline); experiment: indirect ELISA, IL-31 protein coated
T2 construct: Full length feline IL-31 with C-terminal His tag, secreted from ExpiCHO cells; also called fIL-31
T2 chain: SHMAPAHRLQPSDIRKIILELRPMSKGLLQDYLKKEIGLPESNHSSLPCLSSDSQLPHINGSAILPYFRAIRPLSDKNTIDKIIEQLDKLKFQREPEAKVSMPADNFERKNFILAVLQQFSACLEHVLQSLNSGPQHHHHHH

[3] = molecular target: T2, wildtype feline IL-31 protein …; experiment: SPR (Biacore), IL-31 on chip, 1:1 fit
In short: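 IL-31 was amine-coupled (NHS/EDC) to the chip at 5 μg/mL and quenched with ethanolamine, and candidate mAbs were flowed over it as analytes. Binding curves were fitted to a 1:1 model.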

[4] = molecular target: T2, wildtype feline IL-31 protein …; experiment: cell-based or functional assay
[5] = molecular target: T3, canine IL-31 protein (Canine_IL31) (canine); experiment: cell-based or functional assay
T3 chain: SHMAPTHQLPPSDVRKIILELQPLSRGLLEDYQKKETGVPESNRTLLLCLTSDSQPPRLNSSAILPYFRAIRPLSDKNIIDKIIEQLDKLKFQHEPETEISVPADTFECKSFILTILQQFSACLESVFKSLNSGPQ

B1: mouse anti IL-31 antibody 15H05 (antibody, mouse IgG1, kappa)
heavy: QVQLQQSAAELARPGASVKMSCKTSGYTFTSYTIHWIKQRPGQGLEWIGNINPTSGYTENNQRFKDKTTLTVDRSSNTAYLQLHSLTSEDSAVYFCARWGFKYDGEWSFDVWGAGTTVTVSSKTTPPSVYPLAPGSAAQTNSMVTLGCLVKGYFPEPVTVTWNSGSLSSGVHTFPAVLESDLYTLSSSVTVPSSPRPSETVTCNVAHPASSTKVDKKIVPRDCGCKPCICTVPEVSSVFIFPPKPKDVLTITLTPKVTCVVVDISKDDPEVQFSWFVDDVEVHTAQTQPREEQFNSTFRSVSELPIMHQDWLNGKEFKCRVNSAAFPAPIEKTISKTKGRPKAPQVYTIPPPKEQMAKDKVSLTCMITDFFPEDITVEWQWNGQPAENYKNTQPIMNTNGSYFVYSKLNVQKSNWEAGNTFTCSVLHEGLHNHHTEKSLSHSPGK
light: DIQMNQSPSSLSASLGDTITVTCRASQGISIWLSWYQQKPGNIPKVLINKASNLHIGVPPRFSGSGSGTHFTLTITSLQPEDIATYYCLQSQTYPLTFGGGTKLEINADAAPTVSIFPPSSEQLTSGGASVVCFLNNFYPKDINVKWKIDGSERQNGVLNSWTDQDSKDSTYSMSSTLTLTKDEYERHNSYTCEATHKTSTSPIVKSFNRNEC
notes: Mouse hybridoma antibody, IgG1 kappa; also called Mu-15H05; MU-15H05
Q: How did the “ELISA OD” value [1] turn out when B1 was run?
A: Its value is 0.05 OD.

Q: What about the “ELISA OD” value [2] of the same binder?
A: The value was 1.94 OD.

Q: And the Kd [3]?
A: The Kd was 0.348 nM.

Q: What about the koff [3] of the same binder?
A: The koff was 1.69e-05 s⁻¹.

Q: And the kon [3]?
A: The kon was 48400 M⁻¹ s⁻¹.

Q: What about the “IC50, inhibition of feline IL-31-induced STAT3 phosphorylation, canine DH82 cells” value [4] of the same binder?
A: The value was 2.7 µg/mL.

Q: What about the “IC50, inhibition of feline IL-31-induced STAT3 phosphorylation, feline FCWF4 cells” value [4] of the same binder?
A: Its value is 4.26 µg/mL.

Q: What about the Inhibition of IL-31 induced pSTAT3 IC50 (µg/ml), Canine IL-31 on Canine DH82 cells [5] of the same binder?
A: Its Inhibition of IL-31 induced pSTAT3 IC50 (µg/ml), Canine IL-31 on Canine DH82 cells is 11.2 µg/ml.
